Results: patent US20120045438A1 (Janssen / Centocor, published 2012)
Where a chain is given by its changes, count along the chain named.

B1: Phage # 33 Fab (IL-13-142 library) (Fab, V domains shown)
VH: QVTLKESGPVLVKPTETLTLTCTVSGFSLSTYGMGVGWIRQPPGKALEWLAHIWWDDVKRYNPALKSRLTISKDTSKSQVVLTMTNMDPVDTATYYCARMGSDYDVWFDYWGQGTLVTVSS
VL: DIQMTQSPSTLSASVGDRVTITCRASKSISKYLAWYQQKPGKAPKLLIYSGSTLQSGVPSRFSGSGSGTEFTLTISSLQPDDFATYYCQQHDWGPYTFGGGTKVEIK
notes: Fab on phage pIX
B2: Phage # 48 Fab (IL-13-142 library) (Fab, V domains shown)
VH: B1 VH
VL: B1 VL
notes: Fab on phage pIX
B3: Phage # 62 Fab (IL-13-142 library) (Fab, V domains shown)
VH: B1 VH
VL: DIQMTQSPSTLSASVGDRVTITCRASKSISKYLAWYQQKPGKAPKLLIYSGSTLQSGVPSRFSGSGSGTEFTLTISSLQPDDFATYYCQQQDSPYTFGGGTKVEIK
notes: Fab on phage pIX; del = residue deleted
B4: Phage # 70 Fab (IL-13-142 library) (Fab, V domains shown)
VH: B1 VH
VL: B1 VL with D92S
notes: Fab on phage pIX
B5: Phage # 87 Fab (IL-13-142 library) (Fab, V domains shown)
VH: B1 VH
VL: B1 VL with D92S, W93L
notes: Fab on phage pIX
B6: Phage # 68 Fab (IL-13-142 library) (Fab, V domains shown)
VH: B1 VH
VL: B3 VL with Q91H, S93F
notes: as for B3
B7: Phage # 67 Fab (IL-13-142 library) (Fab, V domains shown)
VH: B1 VH
VL: B1 VL with H91P, D92I, W93D
notes: Fab on phage pIX
B8: Phage # 78 Fab (IL-13-142 library) (Fab, V domains shown)
VH: B1 VH
VL: B1 VL with D92L, W93M, G94A
notes: Fab on phage pIX
B9: Phage # 83 Fab (IL-13-142 library) (Fab, V domains shown)
VH: B1 VH
VL: B1 VL with W93M
notes: Fab on phage pIX
B10: Phage # 75 Fab (IL-13-142 library) (Fab, V domains shown)
VH: B1 VH
VL: B1 VL with H91L, D92S, W93Y, G94E
notes: Fab on phage pIX
B11: Phage # 77 Fab (IL-13-142 library) (Fab, V domains shown)
VH: B1 VH
VL: B1 VL with W93F, G94A
notes: Fab on phage pIX
B12: Phage # 46 Fab (IL-13-142 library) (Fab, V domains shown)
VH: B1 VH
VL: B1 VL with D92V, W93T, G94L
notes: Fab on phage pIX
B13: Phage # 85 Fab (IL-13-142 library) (Fab, V domains shown)
VH: B1 VH
VL: B1 VL with D92M
notes: Fab on phage pIX
B14: Phage # 65 Fab (IL-13-142 library) (Fab, V domains shown)
VH: B1 VH
VL: B1 VL with W93F, G94V
notes: Fab on phage pIX
B15: Phage # 61 Fab (IL-13-142 library) (Fab, V domains shown)
VH: B1 VH
VL: B1 VL with D92L, W93F, G94T
notes: Fab on phage pIX
B16: Phage # 94 Fab (IL-13-142 library) (Fab, V domains shown)
VH: B1 VH
VL: B1 VL with W93L
notes: Fab on phage pIX
B17: Phage # 43 Fab (IL-13-142 library) (Fab, V domains shown)
VH: B1 VH
VL: B1 VL with D92L, W93G, G94Q
notes: Fab on phage pIX
B18: Phage # 81 Fab (IL-13-142 library) (Fab, V domains shown)
VH: B1 VH
VL: B1 VL with W93V
notes: Fab on phage pIX
B19: Phage # 44 Fab (IL-13-142 library) (Fab, V domains shown)
VH: B1 VH
VL: B1 VL with W93I
notes: Fab on phage pIX
B20: Phage # 88 Fab (IL-13-142 library) (Fab, V domains shown)
VH: B1 VH
VL: B1 VL with D92F
notes: Fab on phage pIX
B21: Phage # 55 Fab (IL-13-142 library) (Fab, V domains shown)
VH: B1 VH
VL: B1 VL with D92L, W93T, G94N
notes: Fab on phage pIX
B22: Phage # 74 Fab (IL-13-142 library) (Fab, V domains shown)
VH: B1 VH
VL: B1 VL with H91Q, W93M
notes: Fab on phage pIX
B23: Phage # 40 Fab (IL-13-142 library) (Fab, V domains shown)
VH: B1 VH
VL: B1 VL with D92S, W93R
notes: Fab on phage pIX
B24: Phage # 80 Fab (IL-13-142 library) (Fab, V domains shown)
VH: B1 VH
VL: B3 VL with S93Y
notes: as for B3
B25: Phage # 93 Fab (IL-13-142 library) (Fab, V domains shown)
VH: B1 VH
VL: B1 VL with D92E, W93S
notes: Fab on phage pIX
B26: Phage # 39 Fab (IL-13-142 library) (Fab, V domains shown)
VH: B1 VH
VL: B1 VL with D92L, W93G, G94V
notes: Fab on phage pIX
B27: Phage # 82 Fab (IL-13-142 library) (Fab, V domains shown)
VH: B1 VH
VL: B1 VL with W93V, G94S
notes: Fab on phage pIX
B28: Phage # 47 Fab (IL-13-142 library) (Fab, V domains shown)
VH: B1 VH
VL: B1 VL with H91L, D92T, W93Y, G94E
notes: Fab on phage pIX
B29: Phage # 56 Fab (IL-13-142 library) (Fab, V domains shown)
VH: B1 VH
VL: B1 VL with D92W, W93D, G94A
notes: Fab on phage pIX
B30: Phage # 84 Fab (IL-13-142 library) (Fab, V domains shown)
VH: B1 VH
VL: B1 VL with D92L, W93I, G94E
notes: Fab on phage pIX
B31: Phage # 57 Fab (IL-13-142 library) (Fab, V domains shown)
VH: B1 VH
VL: B1 VL with G94E
notes: Fab on phage pIX
B32: Phage # 76 Fab (IL-13-142 library) (Fab, V domains shown)
VH: B1 VH
VL: B1 VL with D92L, W93D, G94L
notes: Fab on phage pIX
B33: Phage # 72 Fab (IL-13-142 library) (Fab, V domains shown)
VH: B1 VH
VL: B1 VL with D92N, W93E
notes: Fab on phage pIX
B34: Phage # 71 Fab (IL-13-142 library) (Fab, V domains shown)
VH: B1 VH
VL: B1 VL with H91P, D92L, W93D, G94S
notes: Fab on phage pIX
B35: Phage # 86 Fab (IL-13-142 library) (Fab, V domains shown)
VH: B1 VH
VL: B1 VL with W93T
notes: Fab on phage pIX
B36: Phage # 51 Fab (IL-13-142 library) (Fab, V domains shown)
VH: B1 VH
VL: B1 VL with D92S, W93A
notes: Fab on phage pIX
B37: mAb with Lc 1A05 (Lc6 variant) and Hc2 (antibody, V domains shown)
VH: B1 VH
VL: EIVLTQSPATLSLSPGERATLSCRASKSISKYLAWYQQKPGQAPRLLIYSGSTLQSGIPARFSGSGSGTDFTLTISSLEPEDFAVYYCQQQDGPYTFGQGTKLEIK
notes: human IgG1; del = residue deleted
B38: mAb with Lc 1C02 (Lc6 variant) and Hc2 (antibody, V domains shown)
VH: B1 VH
VL: EIVLTQSPATLSLSPGERATLSCRASKSISKYLAWYQQKPGQAPRLLIYSGSTLQSGIPARFSGSGSGTDFTLTISSLEPEDFAVYYCQQHVWGPYTFGQGTKLEIK
notes: human IgG1
B39: mAb with Lc 1E03 (Lc6 variant) and Hc2 (antibody, V domains shown)
VH: B1 VH
VL: B38 VL with V92L, W93L
notes: human IgG1
B40: mAb with Lc 1F03 (Lc6 variant, Table 8) and Hc2 (antibody, V domains shown)
VH: B1 VH
VL: B38 VL with V92D, W93R, G94D
notes: human IgG1
B41: mAb with Lc 1G02 (Lc6 variant, Table 8) and Hc2 (antibody, V domains shown)
VH: B1 VH
VL: B38 VL with V92S, G94A
notes: human IgG1
B42: mAb with Lc 1B01 (Lc6 variant) and Hc2 (antibody, V domains shown)
VH: B1 VH
VL: B38 VL with V92S
notes: human IgG1
B43: mAb with Lc 1H02 (Lc6 variant) and Hc2 (antibody, V domains shown)
VH: B1 VH
VL: B38 VL with H91Q, V92D, W93I
notes: human IgG1

molecular target: T1, human IL-13 R130Q variant (R110Q of the mature chain) (human, UniProt P35225 35-146, Biotinylated on amines (NHS-LC-biotin, 4:1) in ELISA, panning and competition assays. The letters are unchanged.); assay: single-point (10 nM) phage Fab ELISA on biotinylated IL-13 R130Q
T1 construct: R130Q counts from Met 1 of the signal peptide, R110Q on the mature chain; Bought from Peprotech; also called IL-13 R110Q; b-R130Q

Q: With B1 as the binder, how does the “% of Lc16Hc7” value read?
A: Its value is 124%.

Q: How did the “% of Lc16Hc7” value turn out when B2 was run?
A: Its value is 180%.

Q: B3 was tested. Which “% of Lc16Hc7” value did it give?
A: Its value is 185%.

Q: For B4, which “% of Lc16Hc7” value is on record?
A: Its value is 308%.

Q: How did the “% of Lc16Hc7” value turn out when B5 was run?
A: Its value is 125%.

Q: B6 was tested. Which “% of Lc16Hc7” value did it give?
A: The value was 398%.

Q: Which “% of Lc16Hc7” value does the source give for B7 here?
A: The value was 127%.

Q: Which “% of Lc16Hc7” value does the source give for B8 here?
A: The value was 154%.

Q: With B9 as the binder, how does the “% of Lc16Hc7” value read?
A: Its value is 145%.

Q: Which “% of Lc16Hc7” value does the source give for B10 here?
A: The value was 355%.

Q: For B11, which “% of Lc16Hc7” value is on record?
A: The value was 195%.

Q: Which “% of Lc16Hc7” value does the source give for B12 here?
A: Its value is 281%.

Q: For B13, which “% of Lc16Hc7” value is on record?
A: Its value is 259%.

Q: Which “% of Lc16Hc7” value does the source give for B14 here?
A: The value was 147%.

Q: How did the “% of Lc16Hc7” value turn out when B15 was run?
A: The value was 245%.

Q: With B16 as the binder, how does the “% of Lc16Hc7” value read?
A: The value was 272%.

Q: How did the “% of Lc16Hc7” value turn out when B17 was run?
A: The value was 205%.

Q: How did the “% of Lc16Hc7” value turn out when B18 was run?
A: The value was 231%.

Q: B19 was tested. Which “% of Lc16Hc7” value did it give?
A: The value was 240%.

Q: How did the “% of Lc16Hc7” value turn out when B20 was run?
A: Its value is 193%.

Q: Which “% of Lc16Hc7” value does the source give for B21 here?
A: Its value is 355%.

Q: B22 was tested. Which “% of Lc16Hc7” value did it give?
A: Its value is 301%.

Q: B23 was tested. Which “% of Lc16Hc7” value did it give?
A: The value was 179%.

Q: Which “% of Lc16Hc7” value does the source give for B24 here?
A: The value was 163%.

Q: For B25, which “% of Lc16Hc7” value is on record?
A: Its value is 223%.

Q: How did the “% of Lc16Hc7” value turn out when B26 was run?
A: Its value is 178%.

Q: Which “% of Lc16Hc7” value does the source give for B27 here?
A: Its value is 342%.

Q: B28 was tested. Which “% of Lc16Hc7” value did it give?
A: The value was 233%.

Q: B29 was tested. Which “% of Lc16Hc7” value did it give?
A: The value was 234%.

Q: How did the “% of Lc16Hc7” value turn out when B30 was run?
A: The value was 186%.

Q: How did the “% of Lc16Hc7” value turn out when B31 was run?
A: The value was 245%.

Q: For B32, which “% of Lc16Hc7” value is on record?
A: The value was 256%.

Q: B33 was tested. Which “% of Lc16Hc7” value did it give?
A: The value was 114%.

Q: With B34 as the binder, how does the “% of Lc16Hc7” value read?
A: Its value is 208%.

Q: B35 was tested. Which “% of Lc16Hc7” value did it give?
A: The value was 334%.

Q: Which “% of Lc16Hc7” value does the source give for B36 here?
A: The value was 192%.

molecular target: T1, human IL-13 R130Q variant (R110Q of the …); assay: Ra2 binding inhibition ELISA, mAb in crude HEK293 supernatant, IL-13 binding to IL-13Ra2

Q: B37 was tested. Which “% Ra2 Binding Inhibition” value did it give?
A: The value was 82.7%.

Q: B38 was tested. Which “% Ra2 Binding Inhibition” value did it give?
A: Its value is 68.4%.

Q: With B39 as the binder, how does the “% Ra2 Binding Inhibition” value read?
A: Its value is 61.5%.

Q: For B40, which “% Ra2 Binding Inhibition” value is on record?
A: The value was 57.6%.

Q: With B41 as the binder, how does the “% Ra2 Binding Inhibition” value read?
A: The value was 55.2%.

Q: B42 was tested. Which “% Ra2 Binding Inhibition” value did it give?
A: The value was 77.6%.

Q: How did the “% Ra2 Binding Inhibition” value turn out when B43 was run?
A: Its value is 81.7%.
